From patent publication US20140087995A1 (published 2014)
Numbered stars: 1 amine (or outer) side, 2 acyl side, 3 side chain; on linkers, the order of the positions; unused ones are H or OH. Bridge positions count the residues as written; N and C are the ends. Side chains are listed from the residue outwards. Ends that are not written are not given here. * marks the point of attachment. C20 diacid = O=C(O)CCCCCCCCCCCCCCCCCCC(=O)*; γGlu = O=C(O)[C@H](CCC(=O)[*:2])N[*:1]

T1: human amylin 3(a) receptor (human calcitonin receptor co-expressed with RAMP-3) (human, UniProt P30988 25-474; O60896 24-148, limits assumed)
T1 sequence (looked up) 1: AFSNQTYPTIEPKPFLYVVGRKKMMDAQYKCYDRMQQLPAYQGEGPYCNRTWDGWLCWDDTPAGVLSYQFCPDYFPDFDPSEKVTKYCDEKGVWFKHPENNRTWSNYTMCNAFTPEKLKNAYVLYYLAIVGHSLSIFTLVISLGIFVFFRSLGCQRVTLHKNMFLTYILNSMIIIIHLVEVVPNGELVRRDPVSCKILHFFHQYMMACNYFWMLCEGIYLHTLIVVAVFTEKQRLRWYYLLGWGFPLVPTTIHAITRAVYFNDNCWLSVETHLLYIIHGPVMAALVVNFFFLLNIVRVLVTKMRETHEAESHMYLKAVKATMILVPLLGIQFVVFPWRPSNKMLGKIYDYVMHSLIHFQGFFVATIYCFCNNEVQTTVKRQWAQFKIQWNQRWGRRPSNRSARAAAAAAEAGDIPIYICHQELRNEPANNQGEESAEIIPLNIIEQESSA
T1 sequence (looked up) 2: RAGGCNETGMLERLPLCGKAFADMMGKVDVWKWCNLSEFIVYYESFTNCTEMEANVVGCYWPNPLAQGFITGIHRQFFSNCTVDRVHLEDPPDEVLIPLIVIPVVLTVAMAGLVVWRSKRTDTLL

T2: human calcitonin receptor (human, UniProt P30988 25-474)
T2 sequence (looked up): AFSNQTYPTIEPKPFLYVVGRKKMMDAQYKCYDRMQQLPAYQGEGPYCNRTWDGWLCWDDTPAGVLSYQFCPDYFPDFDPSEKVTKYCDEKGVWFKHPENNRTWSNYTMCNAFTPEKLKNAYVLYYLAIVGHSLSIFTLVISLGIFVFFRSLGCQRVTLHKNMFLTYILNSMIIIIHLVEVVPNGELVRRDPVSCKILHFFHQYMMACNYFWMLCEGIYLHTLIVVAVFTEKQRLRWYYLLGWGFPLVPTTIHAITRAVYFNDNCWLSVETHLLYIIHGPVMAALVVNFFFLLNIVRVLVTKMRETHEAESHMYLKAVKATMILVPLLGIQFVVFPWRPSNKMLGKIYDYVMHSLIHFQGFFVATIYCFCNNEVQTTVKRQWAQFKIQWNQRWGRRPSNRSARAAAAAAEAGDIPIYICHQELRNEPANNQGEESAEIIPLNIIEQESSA


Key:
[1] = biological target: T1, human amylin 3(a) receptor (human …); assay: cell-based or functional assay
[2] = biological target: T2, human calcitonin receptor; assay: cell-based or functional assay

Binder	hAmylin-R funct. EC50 [1]	Ratio hCT/hAmylin funct. [2]	hCTR funct. EC50 [2]
K([γGlu-γGlu-C20 diacid])CNTATCATQRLANFLRHSSPNFGAIPSSTNVGHNTY-NH2 (disulfide 2-7; N-terminus assumed; SMILES CC[C@H](C)[C@H](NC(=O)[C@H](C)NC(=O)CNC(=O)[C@H](Cc1ccccc1)NC(=O)[C@H](CC(N)=O)NC(=O)[C@@H]1CCCN1C(=O)[C@H](CO)NC(=O)[C@H](CO)NC(=O)[C@H](Cc1c[nH]cn1)NC(=O)[C@H](CCCNC(=N)N)NC(=O)[C@H](CC(C)C)NC(=O)[C@H](Cc1ccccc1)NC(=O)[C@H](CC(N)=O)NC(=O)[C@H](C)NC(=O)[C@H](CC(C)C)NC(=O)[C@H](CCCNC(=N)N)NC(=O)[C@H](CCC(N)=O)NC(=O)[C@@H](NC(=O)[C@H](C)NC(=O)[C@@H]1CSSC[C@H](NC(=O)[C@@H](N)CCCCNC(=O)CC[C@H](NC(=O)CC[C@H](NC(=O)CCCCCCCCCCCCCCCCCCC(=O)O)C(=O)O)C(=O)O)C(=O)N[C@@H](CC(N)=O)C(=O)N[C@@H]([C@@H](C)O)C(=O)N[C@@H](C)C(=O)N[C@@H]([C@@H](C)O)C(=O)N1)[C@@H](C)O)C(=O)N1CCC[C@H]1C(=O)N[C@@H](CO)C(=O)N[C@@H](CO)C(=O)N[C@H](C(=O)N[C@@H](CC(N)=O)C(=O)N[C@H](C(=O)NCC(=O)N[C@@H](Cc1c[nH]cn1)C(=O)N[C@@H](CC(N)=O)C(=O)N[C@H](C(=O)N[C@@H](Cc1ccc(O)cc1)C(N)=O)[C@@H](C)O)C(C)C)[C@@H](C)O, also called compound 86)	0.298 nM	64.4	19.2 nM
K([γGlu-γGlu-C20 diacid])CNTATCATQRLAEFLRHSSPNFGAIPSSTNVGRNTY-NH2 (disulfide 2-7; N-terminus assumed; SMILES CC[C@H](C)[C@H](NC(=O)[C@H](C)NC(=O)CNC(=O)[C@H](Cc1ccccc1)NC(=O)[C@H](CC(N)=O)NC(=O)[C@@H]1CCCN1C(=O)[C@H](CO)NC(=O)[C@H](CO)NC(=O)[C@H](Cc1c[nH]cn1)NC(=O)[C@H](CCCNC(=N)N)NC(=O)[C@H](CC(C)C)NC(=O)[C@H](Cc1ccccc1)NC(=O)[C@H](CCC(=O)O)NC(=O)[C@H](C)NC(=O)[C@H](CC(C)C)NC(=O)[C@H](CCCNC(=N)N)NC(=O)[C@H](CCC(N)=O)NC(=O)[C@@H](NC(=O)[C@H](C)NC(=O)[C@@H]1CSSC[C@H](NC(=O)[C@@H](N)CCCCNC(=O)CC[C@H](NC(=O)CC[C@H](NC(=O)CCCCCCCCCCCCCCCCCCC(=O)O)C(=O)O)C(=O)O)C(=O)N[C@@H](CC(N)=O)C(=O)N[C@@H]([C@@H](C)O)C(=O)N[C@@H](C)C(=O)N[C@@H]([C@@H](C)O)C(=O)N1)[C@@H](C)O)C(=O)N1CCC[C@H]1C(=O)N[C@@H](CO)C(=O)N[C@@H](CO)C(=O)N[C@H](C(=O)N[C@@H](CC(N)=O)C(=O)N[C@H](C(=O)NCC(=O)N[C@@H](CCCNC(=N)N)C(=O)N[C@@H](CC(N)=O)C(=O)N[C@H](C(=O)N[C@@H](Cc1ccc(O)cc1)C(N)=O)[C@@H](C)O)C(C)C)[C@@H](C)O, also called compound 88)	0.773 nM	8.5	6.55 nM
